Experimental data published in the Human Domainome abundance scans (Beltran et al. 2025).
± gives the uncertainty stated by the source.

B1: RAS guanyl-releasing protein 1, residues 539 to 593; numbered along this chain, O95267 (parent)
chain: GFPHNFQETTYLKPTFCDNCAGFLWGVIKQGYRCKDCGMNCHKQCKDLVVFECKK

Variants of: B1
Assay: abundance fitness (aPCA) (normalised: wild type 0, dead -1); higher = more abundant; growth selection in yeast, the domain comes from the species named
Conditions: Homo sapiens

First: GFPHNFQETTYLKPTFCDNCAGFLWGVIKQGYRCKDCGMNCHKQCKDLVQFECKK [V50Q]
Second: GFPHNFQETTYLKPTFCDNCAGFLWGVIKQGYRCKDCGMNCHKQCKDLVHFECKK [V50H]
The abundance fitness of the first is higher: 0.06 ± 0.1 for the first, -0.214 ± 0.15 for the second.

First: GFPHNFQETTYLKPTFCDNCAGFLWGVIKQGYRCKDCGMNCHKQCKDGVVFECKK [L48G]
Second: GFPHNFQETTYLKPTFCDNCAGFLWGVIKQAYRCKDCGMNCHKQCKDLVVFECKK [G31A]
The abundance fitness of the first is higher: 0.074 ± 0.061 for the first, -0.092 ± 0.077 for the second.

First: GFPHNFQETTYLKPTFCDNCAGFLWGVIKQGYRCKDCGMYCHKQCKDLVVFECKK [N40Y]
Second: GFPHNFQETTYLKPTFCDNCAGFLWGVIKQGYRCKDCGMDCHKQCKDLVVFECKK [N40D]
The abundance fitness of the first is lower: -0.285 ± 0.055 for the first, -0.023 ± 0.053 for the second.

GFPHNFQETTYLKPTFCDNCAGFLWGVIKQGYRCKDCGMQCHKQCKDLVVFECKK [N40Q] and GFPHNFQETTYLKPTHCDNCAGFLWGVIKQGYRCKDCGMNCHKQCKDLVVFECKK [F16H] are within error of each other in abundance fitness: -0.02 ± 0.072 for the first, -0.148 ± 0.12 for the second.

GFPHNFQETTYLKPTSCDNCAGFLWGVIKQGYRCKDCGMNCHKQCKDLVVFECKK [F16S] and GGPHNFQETTYLKPTFCDNCAGFLWGVIKQGYRCKDCGMNCHKQCKDLVVFECKK [F2G] are within error of each other in abundance fitness: -0.285 ± 0.094 for the first, -0.335 ± 0.068 for the second.

First: GIPHNFQETTYLKPTFCDNCAGFLWGVIKQGYRCKDCGMNCHKQCKDLVVFECKK [F2I]
Second: GRPHNFQETTYLKPTFCDNCAGFLWGVIKQGYRCKDCGMNCHKQCKDLVVFECKK [F2R]
The abundance fitness of the first is higher: 0.097 ± 0.06 for the first, -0.118 ± 0.074 for the second.

GFPHNFQETTYLKPTFCDNCAGFLWGVICQGYRCKDCGMNCHKQCKDLVVFECKK [K29C] and GFPHNFQETTYLKPTFCDNCAGFLWGVIHQGYRCKDCGMNCHKQCKDLVVFECKK [K29H] are within error of each other in abundance fitness: -0.171 ± 0.067 for the first, -0.108 ± 0.24 for the second.

GFPHNFQETTYLKPTFCDNCAGFLWGVIAQGYRCKDCGMNCHKQCKDLVVFECKK [K29A] and GFPHNFQETTYLKPTFCDNCAGFLWGVIKQGYRCYDCGMNCHKQCKDLVVFECKK [K35Y] are within error of each other in abundance fitness: -0.124 ± 0.09 for the first, 0.024 ± 0.11 for the second.

First: GFPHNFQETTYLKPTFCDNCAGFLWGVIKQGYRCADCGMNCHKQCKDLVVFECKK [K35A]
Second: GFPHNFQETTYLKPTFCDNCAGFLWGVIKQGYRCFDCGMNCHKQCKDLVVFECKK [K35F]
The abundance fitness of the first is higher: 0.041 ± 0.074 for the first, -0.193 ± 0.098 for the second.

GFPHNFQETTYLKPTFCDNCAGFLWGVIKQGYRCPDCGMNCHKQCKDLVVFECKK [K35P] and GFPHNFQETTYLKPTFCDNCAGFLWGVIKQGYRCMDCGMNCHKQCKDLVVFECKK [K35M] are within error of each other in abundance fitness: -0.134 ± 0.11 for the first, -0.266 ± 0.099 for the second.

GFPHNFQETTYLKPTFCDNCAGFLWGVIKQGYRCEDCGMNCHKQCKDLVVFECKK [K35E] and GFPHNFQETTYLKPTFCDNCAGFLWGVIKQGYRCKDCGMNCHKDCKDLVVFECKK [Q44D] are within error of each other in abundance fitness: 0.039 ± 0.087 for the first, 0.125 ± 0.12 for the second.

GFPHNFQETTYLKPTFCDNCAGFLWGVIKQGYRCKDCGMNCHKHCKDLVVFECKK [Q44H] and GFPHNFQETTYLKPTFCDNCAGFLWGVIKQGYRCKDCGMNCHKMCKDLVVFECKK [Q44M] are within error of each other in abundance fitness: 0.083 ± 0.089 for the first, -0.001 ± 0.12 for the second.

Going from GFPHNFQETTYLKPTFCDNCAGFLWGVIKQGYRCKDCGMNCHKLCKDLVVFECKK [Q44L] to GFPHNFQETTYLKPTFCDNCAGFLWGVIKQGYRCKDCGMNCHKSCKDLVVFECKK [Q44S], the abundance fitness rises from -0.057 ± 0.087 to 0.149 ± 0.089.

GFAHNFQETTYLKPTFCDNCAGFLWGVIKQGYRCKDCGMNCHKQCKDLVVFECKK [P3A] and GFKHNFQETTYLKPTFCDNCAGFLWGVIKQGYRCKDCGMNCHKQCKDLVVFECKK [P3K] are within error of each other in abundance fitness: -0.047 ± 0.084 for the first, -0.171 ± 0.18 for the second.

GFQHNFQETTYLKPTFCDNCAGFLWGVIKQGYRCKDCGMNCHKQCKDLVVFECKK [P3Q] and DFPHNFQETTYLKPTFCDNCAGFLWGVIKQGYRCKDCGMNCHKQCKDLVVFECKK [G1D] are within error of each other in abundance fitness: 0.14 ± 0.12 for the first, 0.188 ± 0.13 for the second.

GFPHNFQETTYLKPTFCDNCAGFLWGVIKQGYRKKDCGMNCHKQCKDLVVFECKK [C34K] and GFPHNFQETTYLKPTFCDNCAGFLWGVIKQGYRWKDCGMNCHKQCKDLVVFECKK [C34W] are within error of each other in abundance fitness: -0.886 ± 0.25 for the first, -0.891 ± 0.23 for the second.

GFPHNFSETTYLKPTFCDNCAGFLWGVIKQGYRCKDCGMNCHKQCKDLVVFECKK [Q7S] and GFPHNFMETTYLKPTFCDNCAGFLWGVIKQGYRCKDCGMNCHKQCKDLVVFECKK [Q7M] are within error of each other in abundance fitness: -0.127 ± 0.075 for the first, 0.028 ± 0.097 for the second.

GFPHNFKETTYLKPTFCDNCAGFLWGVIKQGYRCKDCGMNCHKQCKDLVVFECKK [Q7K] and GFPHNFQETTELKPTFCDNCAGFLWGVIKQGYRCKDCGMNCHKQCKDLVVFECKK [Y11E] are within error of each other in abundance fitness: -0.484 ± 0.15 for the first, -0.256 ± 0.12 for the second.

GFPHNFQETTRLKPTFCDNCAGFLWGVIKQGYRCKDCGMNCHKQCKDLVVFECKK [Y11R] and GFPHNFQETTYLKPTFCDNCAGFLWGVIKQGGRCKDCGMNCHKQCKDLVVFECKK [Y32G] are within error of each other in abundance fitness: -0.214 ± 0.055 for the first, -0.186 ± 0.069 for the second.

GFPHNFQEITYLKPTFCDNCAGFLWGVIKQGYRCKDCGMNCHKQCKDLVVFECKK [T9I] and GFPHNSQETTYLKPTFCDNCAGFLWGVIKQGYRCKDCGMNCHKQCKDLVVFECKK [F6S] are within error of each other in abundance fitness: -0.203 ± 0.13 for the first, -0.252 ± 0.071 for the second.

GFPHNFQETTYRKPTFCDNCAGFLWGVIKQGYRCKDCGMNCHKQCKDLVVFECKK [L12R] and GFPHNFQETTYLKPTFCDNCAGVLWGVIKQGYRCKDCGMNCHKQCKDLVVFECKK [F23V] are within error of each other in abundance fitness: -0.178 ± 0.06 for the first, -0.132 ± 0.084 for the second.

GFPHNFQETTYLKPTFCMNCAGFLWGVIKQGYRCKDCGMNCHKQCKDLVVFECKK [D18M] and GFPHNFQETTYLKPTFCVNCAGFLWGVIKQGYRCKDCGMNCHKQCKDLVVFECKK [D18V] are within error of each other in abundance fitness: -0.079 ± 0.096 for the first, -0.132 ± 0.088 for the second.

GFPHNFQETTYLKPTFCYNCAGFLWGVIKQGYRCKDCGMNCHKQCKDLVVFECKK [D18Y] and GFPHNFQETTYLKPTFCDICAGFLWGVIKQGYRCKDCGMNCHKQCKDLVVFECKK [N19I] are within error of each other in abundance fitness: -0.315 ± 0.17 for the first, -0.163 ± 0.17 for the second.

GFPHNFQETTYLKPTFCDYCAGFLWGVIKQGYRCKDCGMNCHKQCKDLVVFECKK [N19Y] and GFPHNFQETTYLKPTFCDNCAGFLWGVIKQGYRCKDCGMNCHLQCKDLVVFECKK [K43L] are within error of each other in abundance fitness: -0.142 ± 0.084 for the first, -0.066 ± 0.089 for the second.
